Results reported in paper PMC10682436.

Experiments:
OVOL2 WT (Mus musculus) = OVOL2 WT (Mus musculus) (UniProt Q8CIV7); experiment: EMSA; settings: 1 nM probe; 53 ng protein; EMSA: 1 nM 5'-biotin DNA probe, room temperature, 30 min (1 h for Fig. 7E), LightShift Chemiluminescent EMSA Kit; specific competitor 4.5 uM where used …
[1] = molecular target: OVOL2 C120Y C120Y (Mus musculus) (UniProt Q8CIV7); experiment: EMSA; settings: 1 nM probe; 53 ng or 1.7 ug protein; severely impaired; EMSA: 1 nM 5'-biotin DNA probe, room temperature, 30 min (1 h for Fig. 7E), LightShift Chemiluminescent EMSA Kit; specific competitor 4.5 uM where used …

## AACCGTTACC (double strand) [OVOL2 probe]
OVOL2 WT (Mus musculus)
  binding signal (fold (WT:C120Y DNA binding ability)): 128
[1]
  binding signal (relative to WT = 128): 1
